Among the data in paper PMC11195132 are IC50 values, retold here.

Read-outs that look alike come from different tables or passages of the source.

The target of assay [1] is tSH2 domain of SYK (residues M6-N269) fused to an N-terminal 6xHis tag (UniProt P43405). The assay is described as follows: FRET or BRET.
For assay [2] the target is unchanged. In words: FRET or BRET. This is another data set of the same source. On the technique in general: BRET reads energy transfer from a luciferase to a nearby fluorophore.

For the substance “unlabeled FCER1G-phospho-peptide (from UniProt P30273 54-82)”, the IC50 in assay [1] and in assay [2] was 5 nM in each case.
